From paper PMC4067145

What was measured:
[1] = molecular target: T1, U1A;U2A′ LRR domain (human;human, UniProt P09012;P09661 1-282;1-180, |); test: fluorescence titration
[2] = molecular target: U2B″;U2A′ LRR domain (human;human, UniProt P08579;P09661 1-225;1-180, |); test: fluorescence titration
[3] = molecular target: T2, U2B″ (human, UniProt P08579 1-225); test: fluorescence titration
[4] = molecular target: T3, U1A (human, UniProt P09012 1-282); test: fluorescence titration
[5] = molecular target: T2, U2B″; test: ITC
[6] = molecular target: T3, U1A; test: ITC
[7] = molecular target: T1, U1A;U2A′ LRR domain; test: ITC
[8] = molecular target: T2, U2B″; test: ITC; remark: listed apart in the source
[9] = molecular target: T3, U1A; test: ITC; remark: listed apart in the source
[10] = molecular target: T1, U1A;U2A′ LRR domain; test: fluorescence titration; remark: listed apart in the source

T2 sequence (P08579 whole entry): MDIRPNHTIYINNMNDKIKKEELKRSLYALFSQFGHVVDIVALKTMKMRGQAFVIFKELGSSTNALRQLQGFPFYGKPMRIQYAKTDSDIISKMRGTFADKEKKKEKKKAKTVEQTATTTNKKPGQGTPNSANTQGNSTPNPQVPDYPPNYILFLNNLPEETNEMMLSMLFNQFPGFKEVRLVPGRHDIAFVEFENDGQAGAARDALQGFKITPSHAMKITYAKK
T1 sequence (P09012 whole entry, chain 1 of 2, the tested form may be a part): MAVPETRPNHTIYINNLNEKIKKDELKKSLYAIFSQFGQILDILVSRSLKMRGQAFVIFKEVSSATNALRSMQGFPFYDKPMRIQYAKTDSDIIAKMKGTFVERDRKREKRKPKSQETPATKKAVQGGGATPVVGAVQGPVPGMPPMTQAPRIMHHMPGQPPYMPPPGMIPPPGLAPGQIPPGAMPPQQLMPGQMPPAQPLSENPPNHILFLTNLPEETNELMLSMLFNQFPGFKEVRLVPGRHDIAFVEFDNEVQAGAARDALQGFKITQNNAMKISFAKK
T1 sequence (P09661 1-180, chain 2 of 2): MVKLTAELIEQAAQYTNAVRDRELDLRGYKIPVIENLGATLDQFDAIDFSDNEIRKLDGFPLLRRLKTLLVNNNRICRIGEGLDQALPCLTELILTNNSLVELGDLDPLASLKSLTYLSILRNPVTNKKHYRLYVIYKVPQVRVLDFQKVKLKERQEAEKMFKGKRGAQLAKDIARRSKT
T3 sequence (P09012 whole entry): as the sequence (P09012 whole entry, chain 1 of 2, the tested form may be a part) above
Chain of U2B″;U2A′ LRR domain (P08579 whole entry, chain 1 of 2, the tested form may be a part): as the sequence (P08579 whole entry) above
Chain of U2B″;U2A′ LRR domain (P09661 1-180, chain 2 of 2): as the sequence (P09661 1-180, chain 2 of 2) above

Binder	binding signal [1]	binding signal [2]	Kd [3] [µM]	Kd [4] [µM]	Kd [5] [µM]	Kd [6] [µM]	binding signal [7]	Kd [8] [µM]	Kd [9] [µM]	binding signal [10]
GGGCCCGGUAUUGCAGUACCGCCGGGUCC (structured_RNA) [FAM-SLIV (U2 snRNA stemloop IV)]	89 ± 11 alpha (linkage parameter, fold)	139 ± 49 alpha (linkage parameter, fold)	0.017	0.058						
GGAGUUUUCCAGGACGUAUUGCAGUACCUCGUCCUGG (structured_RNA) [SLIV ITC construct]					0.0023	0.1	34 ± 17 alpha (linkage parameter, fold)			
GGGCACAUUGCACCUCGUGUCCAGACUUCGGUC (structured_RNA) [SLII ITC construct]							1.4 ± 7.9 alpha (linkage parameter, fold)	0.092	< 0.007	
GGGCCCGGCAUUGCACCUCGCCGGGUCC (structured_RNA) [FAM-SLII (U1 snRNA stemloop II)]		15.8 ± 1.6 alpha (linkage parameter, fold)	0.015	0.00033						7.3 ± 1.3 alpha (linkage parameter, fold)
